Experimental data from US6995240.

Biological target: HLA-DR on rheumatoid synovial fluid mononuclear cells (human)
Assay: cell-based or functional assay

inhibition of rheumatoid synovial fluid T cell proliferation to p78: 66 to 84%
Substance: anti-HLA-DR monoclonal antibody L243 (ATCC)
